Laboratory results: paper PMC4067742, “Direct Observations of Amyloid β Self-Assembly in Live Cells Provide Insights into Differences in the Kinetics of Aβ(1–40) and Aβ(1–42) Aggregation” (Chemistry & Biology, 2014)

Test: Fluorescence lifetime imaging (FLIM) of amyloid fibril formation in vitro
Format: physicochemical
Settings: for fluorescence lifetime of larger aggregates deposited on the coverslip: FLIM, 'often in the range of'; for mean fluorescence lifetime, monomeric peptide: beginning of time course / before trypsin
Procedure: We first examined whether a Hilyte Fluor 488 (HF488) dye attached to the N termini of Aβ(1–40) and Aβ(1–42) could act as a reporter of amyloid formation by monitoring how the fluorescence intensity of the dye changes as fibril formation occurs in vitro for each of the two Aβ isoforms. The appearance of fibrillar species was identified by means of dot blot experiments using the conformation-specific antibody LOC ([Kayed et al., 2007]), and the HF488 fluorescence intensity was measured in parallel (Figure 1A; Figure S1 available online). […] This small difference, however, could result from the fact that LOC recognizes fibrillar oligomers as well as amyloid fibrils, whereas the fluorescence quenching is likely to be associated predominately with amyloid fibrils. We also confirmed the formation of β sheet structure by measurement of circular dichroism spectra at the beginning and end of the time course of the experiment (Figure 1B). Next, we used FLIM to analyze these samples collected at the beginning and end of the time course of the experiment. The fluorescence lifetimes in each pixel of these images were obtained by fitting monoexponential decay functions to the observed time-resolved fluorescence decays, and the data and images are shown in Figures 1C and 1D.
All in vitro experiments were performed at a peptide concentration of 5 μM in 50 mM sodium phosphate buffer at pH 7.4. Aggregation kinetics were monitored by steady-state fluorescence in a FLUOstar Optima microplate reader (BMG Labtech) and sealed black Costar half-area, 96-well plates (Corning Life Sciences). Data were recorded at 5-min intervals using a 480-nm bandpass filter for excitation and a 520-nm bandpass filter for emission. Orbital shaking (300 rpm, 10 s) was carried out prior to each recording to ensure that each sample was homogenous. Sample aliquots for dot blot analysis were taken at the indicated time points and immediately flash-frozen in liquid nitrogen. These aliquots were thawed by dilution into phosphate buffer to a total volume of 25 μl and immediately blotted onto a nitrocellulose membrane using a Bio-Rad dot blot apparatus. The membrane was blocked with 5% (w/v) dry milk and 0.1% Triton X-100 in PBS and stained with LOC as the primary antibody and an Alexa Fluor 647-labeled anti-rabbit antibody as the secondary antibody (Life Technologies). The blots were imaged on a Typhoon 9400 scanner (GE Healthcare) using the 633-nm laser line for excitation. Densitometric analysis of the blots was carried out using ImageJ. ([Schneider et al., 2012]). Aβ samples for in vitro fluorescence lifetime imaging were placed in a glass-bottomed tissue culture dish (MatTek) and sealed with a coverslip and nail varnish to avoid evaporation.
All FLIM experiments were carried out using HF488-labeled Aβ peptides, and images were recorded by time-correlated single photon counting (TCSPC) using a confocal microscopy platform built on an Olympus Fluoview FV300 confocal scan unit. A pulsed supercontinuum source (SC 450, Fianium) was used for excitation, emitting a train of sub-10-picosecond pulses at 40 MHz repetition rate. The output beam was collimated and passed through a hot mirror assembly to remove infrared components at wavelengths greater than 700 nm. The visible portion of the spectrum was passed through an acousto-optic tunable filter (AOTFnC-VIS, AA Opto-Electronic) whose radio frequency modulator was driven by software developed using LabVIEW (National Instruments). The excitation wavelength was set to 480 nm. The excitation beam was reflected onto the sample with a 20/80 broad bandwidth coated beam splitter so that 20% of the excitation light passed on to the sample and 80% of the fluorescence signal was reflected toward the confocal pinhole. The fluorescence light was passed through a 515-nm Semrock long-pass filter (Laser 2000) and passed onto a fast photomultiplier tube (PMC-100, Becker & Hickl). Lifetimes were recorded using TCSPC circuitry (SPC-830, Becker & Hickl). […]

[1] = 5 μM peptide in 50 mM sodium phosphate buffer pH 7.4
[2] = 5 μM peptide in 50 mM sodium phosphate buffer pH 7.4, FLIM (TCSPC), monoexponential fit, mean ± SD

Row | Substance | fluorescence lifetime of larger aggregates deposited on the coverslip [1] | mean fluorescence lifetime, monomeric peptide [2] | mean fluorescence lifetime, solutions containing fibrillar peptide (aggregation read-out, 5 μM peptide in 50 mM sodium phosphate buffer pH 7.4, end of time course, FLIM (TCSPC), monoexponential fit, mean ± SD) | lag phase of fibril formation in vitro (decrease in fluorescence lifetime) (5 μM peptide in 50 mM sodium phosphate buffer pH 7.4, droplet on FLIM microscope stage, sigmoidal decrease (Figure S2A))
1 | ^HF488Aβ(1–42): Synthetic 42-residue amyloid β peptide labeled at the N terminus with Hilyte Fluor 488, purchased from Anaspec | 2.5–3.0 ns | 3.7 ± 0.05 ns | 3.3 ± 0.1 ns | 
2 | ^HF488Aβ(1–40): Synthetic 40-residue amyloid β peptide labeled at the N terminus with Hilyte Fluor 488, purchased from Anaspec | 2.5–3.0 ns | 3.7 ± 0.1 ns |  | approximately 2.5 hr
